# Data: the domain aggregation screens of Martell et al. (2025)
# Test: soluble fraction after stress (log2 fold change); higher = more stays soluble; pooled small domains, quantitative proteomics
# Conditions: stress: 75 degC
# 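Note: 20 min heating vs room temperature control held 20 min.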
row,Sequence,soluble fraction (log2)
1,HMGVPTEQEIGKRILAWRKLRGMTLQQLADKAGVGLTTIHNLETGLWYAKMPTYLYIAEALGVSLDALIYG,-1.76
2,HMGVPVTAPMPGKVLKVTVSVGAAVKNGDLVLVLEAMKMENEIFATANGVVKEIRSREGDTVNSGDVMMVI,-2.19
3,HMGVRPAALGFQKVRIEPQVGTFREASGDVITPRGLIHAEWKRDEENALHLHYTLPDGVAYA,-0.0752
4,HMGVSDDMARGVVRARQFLSDFAAVPLDRMTPAEAVARARQLKSELETDAKHSPWLLDVLSNA,-0.116
5,HMGVSEIGSPAWMESKLVTLASYEGSLDGLRTLWGGVAQHRARIPVESWDRLFAAKEEGKARLVKLGRT,-1.25
6,HMGVSLREVPVAEHGDWIGRPIKELGIPAEVLIVLVRRADGTTVVPKGGTVLQQGDMLVVNEWEE,-1.16
7,HMGVTDSSYNVLRRQILEMLSVQQRTPADLARLIEADKEEIAAVIRFLLDKGEIQMEDGMLQTK,-0.821
8,HMGVVEEVAADFEGRAVVGKVDVDEQTELARRFGIMSIPTLVVMKGGKVVEQAVGARGKADIAAMLERH,0.183
9,HMGYINLNVKVSPEWRDFWRSAYASVVAGYHQNKEHWNTIILDGSIPDKDIKRMIAESYDLVSD,-0.561
10,HMGYLNDRQRLIKDFITENQPLKVSDLVKQFPNIGLSTLKKDLQYLRGEQVLTMIGKGKGSVYVLNKK,-0.975
11,HMGYNDQEVKSNLITLLSTSKTGLSGVEISAQLGINRVTMTKFLNVFAAEGIIKQKNIGNLNLWLVEEGTE,-3.44
12,HMGYTTSFVVQLKNAVSISFDEIDQNLRKLPGVEDVVIVEEAAMAYLKVDRQHFREEQLAHFEFVRQ,-1.99
13,HMGYVQLTAREKEVLQGLVDGASYKMIAAKLDIRFGTVHTHVKNIYEKLHVNSASEAVVKAIRQRL,-2.26
14,HMHADIAATVVATMRQLGVLGLPRNYEIFYEALSGTNRELSLAVVSLSNRPTQDDLDRIGRRFFA,-1.33
15,HMHAEEIAREAKEALERGEEFHFAGITVRSEEALEFLEEWLRKFF,-1.02
16,HMHALSVKFSDEAAKTLPYDILSALRDVLALDPRPGYSRDENKIYRFEYADYNISFSVKDKTLTVLSAEK,-2.15
17,HMHAPRIEVVQIDPEKIGALIGPGGKNIRRITEVTGANLDIDEDNSGKIRVYASDSEAMNRALQEIDLVT,0.308
18,HMHDHKTRLQELAAQRFGSAPSYLLTADGPAHDRRFHASVEVGGRSFGPGTGKSKKRAEQVAAHIAWDALS,0.238
19,HMHDIPDITDLRPLRHTLGLTLAHAAQQLNTTTATISRLERGQHRNDHLATTYRTWLHTHPT,-0.291
20,HMHDLSQQIVRYLIQQGGSSSLTDKSDPQEIYRTFKVSKKKYKQALGNLYKSKTIVITSGKIELVD,-3.03
21,HMHDYNTIVGVIEMRDKNIPLTSIRQRYGIGYSGIDLILTRYKDSGLTLKEFLALDPSQAEELIYPPK,-0.961
22,HMHEHWDGSGFPKHLRGANIPLGARVIAVADTYDSITSSRAYRAGSTHEAAEREMRRVSGTQLDPE,0.0624
23,HMHEIVDTVLQVKQSVEADPLIAPALKNKEIVFQLNAKGVFQFKNAVIQVASALGISKNTVYMHLRNNK,-3.04
24,HMHETMGQIIKRLRKERGLTQESLAERLGVTFQAVSKWETDAGMPDVSQIVPLANAFGVRTDVLFGLEGRD,-0.744
25,HMHEYSRIYQQQWWDNATGADAYHVIHSARSRAAQDPEAARALEYLEEQFRIRYGVRTEDFLGYLHD,-1.2
26,HMHFENEETFVLPLVREGFSEQQQLEMVDRLLFDANTDNPRWIIDWMASELPSTQRELLLDLEKRLAEVRS,-0.0441
27,HMHFEWNELRKAINDFLAEQNMNEDKQLGPYFIQRDIVVPETGTEIDSKKFSEVFKHKVIMYLFDDAAKQ,0.0433
28,HMHGESISVPDLRGQKMERMPAFLADKHLQFKVIDSLFDLEKNPGTVLEQDPAPNSKVKEGRTIYLTVNAQ,-0.00257
29,HMHGQGTYTSPDGTKYVGDWQDEKMHGQGTYTYPDGMKFVGEFKDNKPWNGTGYDKYGNVKATFSNGVGKS,-0.0508
30,HMHGSSSTVPPVKGLSFEQARLTLAENDLTVEISDSIYDRNARPGTVVESWPRAGSVVKQGRQVYVTVTAF,-0.894
